Experiment in all cases: cell-based or functional assay
The target of experiment [1] is human GLP-1 receptor (human, UniProt P43220 24-463).
For experiment [2], the target named is human GCG receptor (human, UniProt P47871 26-477).
Experiment [3] deals with T1, human GIP receptor (human, UniProt P48546 22-466).
T1 sequence (looked up): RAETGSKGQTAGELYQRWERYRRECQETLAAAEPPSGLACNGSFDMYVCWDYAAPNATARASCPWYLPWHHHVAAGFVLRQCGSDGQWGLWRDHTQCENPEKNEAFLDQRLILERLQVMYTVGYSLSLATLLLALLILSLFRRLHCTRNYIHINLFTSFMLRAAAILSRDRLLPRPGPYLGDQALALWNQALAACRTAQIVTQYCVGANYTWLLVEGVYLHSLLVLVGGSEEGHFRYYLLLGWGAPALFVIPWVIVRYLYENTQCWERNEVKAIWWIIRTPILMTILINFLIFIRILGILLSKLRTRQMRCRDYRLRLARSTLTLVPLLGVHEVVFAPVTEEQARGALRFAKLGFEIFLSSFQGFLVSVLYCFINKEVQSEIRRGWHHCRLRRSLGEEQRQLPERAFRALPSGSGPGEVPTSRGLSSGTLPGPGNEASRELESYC

*1 amine or outer side, *2 acyl side, *3 side chain or, on linkers, in order; H or OH if unused. Bridges are numbered along the chain shown (N, C = ends). Where no end group is shown, it is not given here. Side-chain parts run from the residue outwards. [ ]: non-standard residue; d: D form. The star is where a group is joined. C20 diacid = O=C(O)CCCCCCCCCCCCCCCCCCC(=O)*; γGlu = O=C(O)[C@H](CCC(=O)[*:2])N[*:1]; AEEA = NCCOCCOCC(=O)O; Aib = CC(C)(N)C(=O)O

Sequence of human GCG receptor (P47871 26-477): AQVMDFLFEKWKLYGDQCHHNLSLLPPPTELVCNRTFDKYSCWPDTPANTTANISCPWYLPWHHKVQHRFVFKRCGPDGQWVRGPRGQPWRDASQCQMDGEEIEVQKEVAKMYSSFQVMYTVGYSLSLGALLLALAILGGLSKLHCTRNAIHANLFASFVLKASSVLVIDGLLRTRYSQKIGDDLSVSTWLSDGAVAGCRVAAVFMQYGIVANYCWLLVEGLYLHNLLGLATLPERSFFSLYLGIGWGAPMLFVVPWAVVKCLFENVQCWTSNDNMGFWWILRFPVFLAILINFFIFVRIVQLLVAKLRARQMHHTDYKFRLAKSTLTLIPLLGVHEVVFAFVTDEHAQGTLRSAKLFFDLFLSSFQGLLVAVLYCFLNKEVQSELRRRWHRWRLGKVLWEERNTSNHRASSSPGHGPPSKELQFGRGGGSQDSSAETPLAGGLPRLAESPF

B1: triple agonist of SEQ ID NO: 1 (peptide)
peptide: Y[Aib]QGTFTSDYSK([AEEA-AEEA-γGlu-C20 diacid])YLDEKAAKEFVQWLLDHHPSSGQPPPS-NH2
modifications: lactam 16-20; N-terminus assumed
SMILES: CC(C)C[C@H](NC(=O)[C@H](Cc1ccc(O)cc1)NC(=O)[C@H](CCCCNC(=O)COCCOCCNC(=O)COCCOCCNC(=O)CC[C@H](NC(=O)CCCCCCCCCCCCCCCCCCC(=O)O)C(=O)O)NC(=O)[C@H](CO)NC(=O)[C@H](Cc1ccc(O)cc1)NC(=O)[C@H](CC(=O)O)NC(=O)[C@H](CO)NC(=O)[C@@H](NC(=O)[C@H](Cc1ccccc1)NC(=O)[C@@H](NC(=O)CNC(=O)[C@H](CCC(N)=O)NC(=O)C(C)(C)NC(=O)[C@@H](N)Cc1ccc(O)cc1)[C@@H](C)O)[C@@H](C)O)C(=O)N[C@@H](CC(=O)O)C(=O)N[C@H]1CCC(=O)NCCCC[C@@H](C(=O)N[C@@H](CCC(=O)O)C(=O)N[C@@H](Cc2ccccc2)C(=O)N[C@H](C(=O)N[C@@H](CCC(N)=O)C(=O)N[C@@H](Cc2c[nH]c3ccccc23)C(=O)N[C@@H](CC(C)C)C(=O)N[C@@H](CC(C)C)C(=O)N[C@@H](CC(=O)O)C(=O)N[C@@H](Cc2c[nH]cn2)C(=O)N[C@@H](Cc2c[nH]cn2)C(=O)N2CCC[C@H]2C(=O)N[C@@H](CO)C(=O)N[C@@H](CO)C(=O)NCC(=O)N[C@@H](CCC(N)=O)C(=O)N2CCC[C@H]2C(=O)N2CCC[C@H]2C(=O)N2CCC[C@H]2C(=O)N[C@@H](CO)C(N)=O)C(C)C)NC(=O)[C@H](C)NC(=O)[C@H](C)NC(=O)[C@H](CCCCN)NC1=O
Regarding B1, in experiment [1], the “In vitro Activity Compared to Native Peptide (%) vs. GLP-1 (relative titer from cAMP EC50)” value is 5.88 % of human GLP-1. The “In vitro Activity Compared to Native Peptide (%) vs. Glucagon (relative titer from cAMP EC50)” value in experiment [2] was 0.33 % of human GCG. Besides, the “In vitro Activity Compared to Native Peptide (%) vs. GIP (relative titer from cAMP EC50)” value in experiment [3] was 5.18 % of human GIP.

B2: triple agonist of SEQ ID NO: 4 (peptide)
peptide: Y[Aib]QGTFTSDYSK([AEEA-AEEA-γGlu-C20 diacid])YLDEKRAKDFVQWLLDHHPSSGQPPPS-NH2
modifications: lactam 16-20; N-terminus assumed
SMILES: CC(C)C[C@H](NC(=O)[C@H](Cc1ccc(O)cc1)NC(=O)[C@H](CCCCNC(=O)COCCOCCNC(=O)COCCOCCNC(=O)CC[C@H](NC(=O)CCCCCCCCCCCCCCCCCCC(=O)O)C(=O)O)NC(=O)[C@H](CO)NC(=O)[C@H](Cc1ccc(O)cc1)NC(=O)[C@H](CC(=O)O)NC(=O)[C@H](CO)NC(=O)[C@@H](NC(=O)[C@H](Cc1ccccc1)NC(=O)[C@@H](NC(=O)CNC(=O)[C@H](CCC(N)=O)NC(=O)C(C)(C)NC(=O)[C@@H](N)Cc1ccc(O)cc1)[C@@H](C)O)[C@@H](C)O)C(=O)N[C@@H](CC(=O)O)C(=O)N[C@H]1CCC(=O)NCCCC[C@@H](C(=O)N[C@@H](CC(=O)O)C(=O)N[C@@H](Cc2ccccc2)C(=O)N[C@H](C(=O)N[C@@H](CCC(N)=O)C(=O)N[C@@H](Cc2c[nH]c3ccccc23)C(=O)N[C@@H](CC(C)C)C(=O)N[C@@H](CC(C)C)C(=O)N[C@@H](CC(=O)O)C(=O)N[C@@H](Cc2c[nH]cn2)C(=O)N[C@@H](Cc2c[nH]cn2)C(=O)N2CCC[C@H]2C(=O)N[C@@H](CO)C(=O)N[C@@H](CO)C(=O)NCC(=O)N[C@@H](CCC(N)=O)C(=O)N2CCC[C@H]2C(=O)N2CCC[C@H]2C(=O)N2CCC[C@H]2C(=O)N[C@@H](CO)C(N)=O)C(C)C)NC(=O)[C@H](C)NC(=O)[C@H](CCCNC(=N)N)NC(=O)[C@H](CCCCN)NC1=O
B2: in experiment [1], the “In vitro Activity Compared to Native Peptide (%) vs. GLP-1 (relative titer from cAMP EC50)” value was 3.71 % of human GLP-1. Besides, the “In vitro Activity Compared to Native Peptide (%) vs. Glucagon (relative titer from cAMP EC50)” value in experiment [2] is 2.36 % of human GCG. The “In vitro Activity Compared to Native Peptide (%) vs. GIP (relative titer from cAMP EC50)” value in experiment [3] is 3.81 % of human GIP.

B3: triple agonist of SEQ ID NO: 5 (peptide)
peptide: Y[Aib]QGTFTSDYSK([AEEA-AEEA-γGlu-C20 diacid])ALDEKRAKEFVQWLLDQHPSSGQPPPS-NH2
modifications: lactam 16-20; N-terminus assumed
SMILES: CC(C)C[C@H](NC(=O)[C@H](C)NC(=O)[C@H](CCCCNC(=O)COCCOCCNC(=O)COCCOCCNC(=O)CC[C@H](NC(=O)CCCCCCCCCCCCCCCCCCC(=O)O)C(=O)O)NC(=O)[C@H](CO)NC(=O)[C@H](Cc1ccc(O)cc1)NC(=O)[C@H](CC(=O)O)NC(=O)[C@H](CO)NC(=O)[C@@H](NC(=O)[C@H](Cc1ccccc1)NC(=O)[C@@H](NC(=O)CNC(=O)[C@H](CCC(N)=O)NC(=O)C(C)(C)NC(=O)[C@@H](N)Cc1ccc(O)cc1)[C@@H](C)O)[C@@H](C)O)C(=O)N[C@@H](CC(=O)O)C(=O)N[C@H]1CCC(=O)NCCCC[C@@H](C(=O)N[C@@H](CCC(=O)O)C(=O)N[C@@H](Cc2ccccc2)C(=O)N[C@H](C(=O)N[C@@H](CCC(N)=O)C(=O)N[C@@H](Cc2c[nH]c3ccccc23)C(=O)N[C@@H](CC(C)C)C(=O)N[C@@H](CC(C)C)C(=O)N[C@@H](CC(=O)O)C(=O)N[C@@H](CCC(N)=O)C(=O)N[C@@H](Cc2c[nH]cn2)C(=O)N2CCC[C@H]2C(=O)N[C@@H](CO)C(=O)N[C@@H](CO)C(=O)NCC(=O)N[C@@H](CCC(N)=O)C(=O)N2CCC[C@H]2C(=O)N2CCC[C@H]2C(=O)N2CCC[C@H]2C(=O)N[C@@H](CO)C(N)=O)C(C)C)NC(=O)[C@H](C)NC(=O)[C@H](CCCNC(=N)N)NC(=O)[C@H](CCCCN)NC1=O
For B3, in experiment [1], the “In vitro Activity Compared to Native Peptide (%) vs. GLP-1 (relative titer from cAMP EC50)” value was 2.36 % of human GLP-1. Besides, the “In vitro Activity Compared to Native Peptide (%) vs. Glucagon (relative titer from cAMP EC50)” value in experiment [2] was 1.51 % of human GCG. Moreover, the “In vitro Activity Compared to Native Peptide (%) vs. GIP (relative titer from cAMP EC50)” value in experiment [3] is 5.29 % of human GIP.

B4: triple agonist of SEQ ID NO: 7 (peptide)
peptide: Y[Aib]QGTFTSDYSK([AEEA-AEEA-γGlu-C20 diacid])YLDEKRAKDFVQWLLDQHPSSGQPPPS-NH2
modifications: lactam 16-20; N-terminus assumed
SMILES: CC(C)C[C@H](NC(=O)[C@H](Cc1ccc(O)cc1)NC(=O)[C@H](CCCCNC(=O)COCCOCCNC(=O)COCCOCCNC(=O)CC[C@H](NC(=O)CCCCCCCCCCCCCCCCCCC(=O)O)C(=O)O)NC(=O)[C@H](CO)NC(=O)[C@H](Cc1ccc(O)cc1)NC(=O)[C@H](CC(=O)O)NC(=O)[C@H](CO)NC(=O)[C@@H](NC(=O)[C@H](Cc1ccccc1)NC(=O)[C@@H](NC(=O)CNC(=O)[C@H](CCC(N)=O)NC(=O)C(C)(C)NC(=O)[C@@H](N)Cc1ccc(O)cc1)[C@@H](C)O)[C@@H](C)O)C(=O)N[C@@H](CC(=O)O)C(=O)N[C@H]1CCC(=O)NCCCC[C@@H](C(=O)N[C@@H](CC(=O)O)C(=O)N[C@@H](Cc2ccccc2)C(=O)N[C@H](C(=O)N[C@@H](CCC(N)=O)C(=O)N[C@@H](Cc2c[nH]c3ccccc23)C(=O)N[C@@H](CC(C)C)C(=O)N[C@@H](CC(C)C)C(=O)N[C@@H](CC(=O)O)C(=O)N[C@@H](CCC(N)=O)C(=O)N[C@@H](Cc2c[nH]cn2)C(=O)N2CCC[C@H]2C(=O)N[C@@H](CO)C(=O)N[C@@H](CO)C(=O)NCC(=O)N[C@@H](CCC(N)=O)C(=O)N2CCC[C@H]2C(=O)N2CCC[C@H]2C(=O)N2CCC[C@H]2C(=O)N[C@@H](CO)C(N)=O)C(C)C)NC(=O)[C@H](C)NC(=O)[C@H](CCCNC(=N)N)NC(=O)[C@H](CCCCN)NC1=O
With B4, in experiment [1], the “In vitro Activity Compared to Native Peptide (%) vs. GLP-1 (relative titer from cAMP EC50)” value was 4.21 % of human GLP-1. Further, the “In vitro Activity Compared to Native Peptide (%) vs. Glucagon (relative titer from cAMP EC50)” value in experiment [2] is 3.32 % of human GCG. In addition, the “In vitro Activity Compared to Native Peptide (%) vs. GIP (relative titer from cAMP EC50)” value in experiment [3] was 5.26 % of human GIP.

B5: triple agonist of SEQ ID NO: 6 (peptide)
peptide: H[Aib]HGTFTSDYSK([AEEA-AEEA-γGlu-C20 diacid])YLDEKAAKDFVQWLLDQHPSSGQPPPS-NH2
modifications: lactam 16-20; N-terminus assumed
SMILES: CC(C)C[C@H](NC(=O)[C@H](Cc1ccc(O)cc1)NC(=O)[C@H](CCCCNC(=O)COCCOCCNC(=O)COCCOCCNC(=O)CC[C@H](NC(=O)CCCCCCCCCCCCCCCCCCC(=O)O)C(=O)O)NC(=O)[C@H](CO)NC(=O)[C@H](Cc1ccc(O)cc1)NC(=O)[C@H](CC(=O)O)NC(=O)[C@H](CO)NC(=O)[C@@H](NC(=O)[C@H](Cc1ccccc1)NC(=O)[C@@H](NC(=O)CNC(=O)[C@H](Cc1c[nH]cn1)NC(=O)C(C)(C)NC(=O)[C@@H](N)Cc1c[nH]cn1)[C@@H](C)O)[C@@H](C)O)C(=O)N[C@@H](CC(=O)O)C(=O)N[C@H]1CCC(=O)NCCCC[C@@H](C(=O)N[C@@H](CC(=O)O)C(=O)N[C@@H](Cc2ccccc2)C(=O)N[C@H](C(=O)N[C@@H](CCC(N)=O)C(=O)N[C@@H](Cc2c[nH]c3ccccc23)C(=O)N[C@@H](CC(C)C)C(=O)N[C@@H](CC(C)C)C(=O)N[C@@H](CC(=O)O)C(=O)N[C@@H](CCC(N)=O)C(=O)N[C@@H](Cc2c[nH]cn2)C(=O)N2CCC[C@H]2C(=O)N[C@@H](CO)C(=O)N[C@@H](CO)C(=O)NCC(=O)N[C@@H](CCC(N)=O)C(=O)N2CCC[C@H]2C(=O)N2CCC[C@H]2C(=O)N2CCC[C@H]2C(=O)N[C@@H](CO)C(N)=O)C(C)C)NC(=O)[C@H](C)NC(=O)[C@H](C)NC(=O)[C@H](CCCCN)NC1=O
For B5, the “In vitro Activity Compared to Native Peptide (%) vs. GLP-1 (relative titer from cAMP EC50)” value in experiment [1] was 7.94 % of human GLP-1. Also, the “In vitro Activity Compared to Native Peptide (%) vs. Glucagon (relative titer from cAMP EC50)” value in experiment [2] is 1.36 % of human GCG. Further, the “In vitro Activity Compared to Native Peptide (%) vs. GIP (relative titer from cAMP EC50)” value in experiment [3] is 6.11 % of human GIP.

Values taken from US20260116944A1, “NOVEL TRIPLE GLP-1/GIP/GLUCAGON RECEPTOR AGONIST AND A PHARMACEUTICAL COMPOSITION FOR PREVENTING OR TREATING OBESITY COMPRISING THE SAME” (HANMI PHARM. CO., LTD., priority 2022, published 2026).
